{"source": "patent US20060234945A1", "about": "“Ophthalmic therapeutic composition” (Nihon Tenganyaku Kenkyusho Co., LTD., priority 2002, published 2006)", "molecules": {"B1": {"name": "EGF: Epidermal Growth Factor, polypeptide with a molecular weight of 6000, mitosis-promoting growth factor for corneal epithelium (protein, UniProt P01133 23-1207, looked up)", "Pro-epidermal growth factor": "PQHWSCPEGTLAGNGNSTCVGPAPFLIFSHGNSIFRIDTEGTNYEQLVVDAGVSVIMDFHYNEKRIYWVDLERQLLQRVFLNGSRQERVCNIEKNVSGMAINWINEEVIWSNQQEGIITVTDMKGNNSHILLSALKYPANVAVDPVERFIFWSSEVAGSLYRADLDGVGVKALLETSEKITAVSLDVLDKRLFWIQYNREGSNSLICSCDYDGGSVHISKHPTQHNLFAMSLFGDRIFYSTWKMKTIWIANKHTGKDMVRINLHSSFVPLGELKVVHPLAQPKAEDDTWEPEQKLCKLRKGNCSSTVCGQDLQSHLCMCAEGYALSRDRKYCEDVNECAFWNHGCTLGCKNTPGSYYCTCPVGFVLLPDGKRCHQLVSCPRNVSECSHDCVLTSEGPLCFCPEGSVLERDGKTCSGCSSPDNGGCSQLCVPLSPVSWECDCFPGYDLQLDEKSCAASGPQPFLLFANSQDIRHMHFDGTDYGTLLSQQMGMVYALDHDPVENKIYFAHTALKWIERANMDGSQRERLIEEGVDVPEGLAVDWIGRRFYWTDRGKSLIGRSDLNGKRSKIITKENISQPRGIAVHPMAKRLFWTDTGINPRIESSSLQGLGRLVIASSDLIWPSGITIDFLTDKLYWCDAKQSVIEMANLDGSKRRRLTQNDVGHPFAVAVFEDYVWFSDWAMPSVMRVNKRTGKDRVRLQGSMLKPSSLVVVHPLAKPGADPCLYQNGGCEHICKKRLGTAWCSCREGFMKASDGKTCLALDGHQLLAGGEVDLKNQVTPLDILSKTRVSEDNITESQHMLVAEIMVSDQDDCAPVGCSMYARCISEGEDATCQCLKGFAGDGKLCSDIDECEMGVPVCPPASSKCINTEGGYVCRCSEGYQGDGIHCLDIDECQLGEHSCGENASCTNTEGGYTCMCAGRLSEPGLICPDSTPPPHLREDDHHYSVRNSDSECPLSHDGYCLHDGVCMYIEALDKYACNCVVGYIGERCQYRDLKWWELRHAGHGQQQKVIVVAVCVVVLVMLLLLSLWGAHYYRTQKLLSKNPKNPYEESSRDVRSRRPADTEDGMSSCPQPWFVVIKEHQDLKNGGQPVAGEDGQAADGSMQPTSWRQEPQLCGMGTEQGCWIPVSSDKGSCPQVMERSFHMPSYGTQTLEGGVEKPHSLLSANPLWQQRALDPPHQMELTQ", "modifications": "Pro-epidermal growth factor", "notes": "Epidermal Growth Factor, polypeptide with a molecular weight of 6000, mitosis-promoting growth factor for corneal epithelium"}}, "test_system": "rabbit corneal wound model", "test": "Corneal wound healing promotion action 1 (in vivo), approx. 6 mm corneal epithelial abrasion", "set-up": "species or system Japanese white rabbit", "conditions": "5 μM eye drop", "protocol": "(2) Corneal Wound Healing Promotion Action 1 (In Vivo)\nUsing a male Japanese white rabbit, a wound of approximately 6 mm in diameter was produced in the cornea by inducing corneal epithelial abrasion in accordance with the method of Cintron et al. (Ophthalmic Res., 11, pp. 90-96 (1979)). The wound area was measured using the fluorescein-stained area as an index. The effects of the test compound on corneal wound healing were examined.\nThe eye drops containing the respective concentrations of the test compound were instilled (30 μl at a time) at 0, 3, 6, 9, 12, 18, 24, 27, 30, 33, 36, 42, and 48 hours after inducing corneal epithelial abrasion. In measuring the wound area, fluorescein staining was carried out and a photograph of the cornea was measured. The fluorescein-stained area of the photographed cornea was computed using an image analysis processing system.\nIn Tables 1 and 2, the respective values indicate the mean value±standard deviation (n=6). Statistical analysis was carried out using Dunnett's multiple comparison with respect to PBS with the area of the corneal wound portion immediately after (0 hours after) corneal epithelial abrasion being set to 100% (*p<0.05, ** p<0.01; vs. control).", "data": [{"molecule": "B1", "values": [{"measurement": "Healing ratio (%)", "setting": "0 hr (baseline)", "value": 0, "unit": "%"}, {"measurement": "Healing ratio (%)", "setting": "6 hr", "value": "14.49 ± 3.42", "unit": "%"}, {"measurement": "Healing ratio (%)", "setting": "12 hr", "value": "31.63 ± 1.29", "unit": "%"}, {"measurement": "Healing ratio (%)", "setting": "24 hr", "value": "70.78 ± 6.91", "unit": "%"}, {"measurement": "Healing ratio (%)", "setting": "36 hr", "value": "96.41 ± 3.97", "unit": "%"}, {"measurement": "Healing ratio (%)", "setting": "48 hr", "value": "99.58 ± 1.03", "unit": "%"}]}]}
